According to article PMC3390394:

Columns and labels:
[1] = biological target: Arabidopsis thaliana dihydrodipicolinate synthase 2 (At-DHDPS2) (Arabidopsis thaliana) (UniProt Q9FVC8); test: AUC; sedimentation velocity, c(s) analysis (SEDFIT); 20 mM Tris-HCl, 150 mM NaCl, pH 8.0, 20°C; At-DHDPS2 at 0.75 mg/mL, 50,000 rpm; At-DHDPR2 at 0.1-1.6 mg/mL, 40,000 rpm
[2] = biological target: Arabidopsis thaliana dihydrodipicolinate synthase 2 (At-DHDPS2) (Arabidopsis thaliana) (UniProt Q9FVC8); test: SEC-MALS; Malvern P3000 column with Viscotek TDA (refractive index, low angle and right angle light scattering); 100 µL of 1.0 mg/mL; 20 mM Tris-HCl, 150 mM NaCl, pH 8.0; 28°C

Arabidopsis thaliana dihydrodipicolinate synthase 2 (At-DHDPS2), sequence (Q9FVC8 40-365): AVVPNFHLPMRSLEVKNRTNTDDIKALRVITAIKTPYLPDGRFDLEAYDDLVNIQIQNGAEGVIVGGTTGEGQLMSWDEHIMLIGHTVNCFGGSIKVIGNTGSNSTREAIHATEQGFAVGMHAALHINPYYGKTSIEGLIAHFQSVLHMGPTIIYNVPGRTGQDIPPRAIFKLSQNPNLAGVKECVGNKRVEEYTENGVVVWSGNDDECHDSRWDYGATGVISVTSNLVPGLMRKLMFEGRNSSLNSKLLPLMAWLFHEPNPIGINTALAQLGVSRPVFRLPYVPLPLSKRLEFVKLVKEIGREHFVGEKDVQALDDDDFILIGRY

## Arabidopsis thaliana dihydrodipicolinate synthase 2 (At-DHDPS2) (from UniProt Q9FVC8 40-365) (enzyme)
[1]
  stoichiometry N: 4
[2]
  stoichiometry N: 4
